Reference: the supplement of paper PMC9170038

Test system: K4 kissing-loop RNA reporter
Assay: apparent KD of K4 kissing-loop reporter; higher = weaker reporter binding
Conditions: Eterna round: R107
Description: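 RNA-MaP round R107: designed RNA switches with theophylline, tryptophan, arginine or FMN aptamers are transcribed on-chip within common flanks. They are titrated with a labelled K4 kissing-loop RNA reporter in RNA-MaP buffer (100 mM Tris pH 7.5, 80 mM KCl, 4 mM MgCl2), without ligand or with the indicated ligand. Median apparent KD per design.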

[1] = input ligand: theophylline 20 uM
[2] = input ligand: tryptophan 2.4 mM
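Further: bound reporter read as fluorescence of individual clusters on recovered sequencing chips by microscopy, with normalized cluster intensities fitted with a binding model.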

Sequence	apparent KD of K4 kissing-loop reporter (input ligand: FMN 200 uM)	apparent KD of K4 kissing-loop reporter (input ligand: arginine 13.2 mM)	apparent KD of K4 kissing-loop reporter (input ligand: none)	apparent KD of K4 kissing-loop reporter [1]	apparent KD of K4 kissing-loop reporter [2]
GGAUAGGAUAGAGGAUAUGGGCUAGGCAAGAAUAACUUGUCUAGCAAAUCCAUGAGGAGUGAUGUUCCAGAAGGCUAUCCUAUCG [FmnBX 1 U9+A77]	960 nM	160 nM	164 nM	145 nM	155 nM
UGUAAUGGCUGAGCAGCCGUGGUACGAGAUACCAGUGAUUUCGAUCACCCUUGGCAGCUCGGCGUGAGUGAUGUUCACGCUACAC [Theo A SS t12]	201 nM	199 nM	203 nM	207 nM	199 nM
AUGCGACGUGCGGCCGCCACUCGGAUGCGAGUGAUGUUCGCGGGACGGACGCAAGUCCGUCAUUCGAGGACCGGGCAUCGGUGUA [#2 Same State - Tryptophan B Attempt #2 (HarryS)]	555 nM	462 nM	636 nM	512 nM	139 nM
UGUCAUGGAAACAUGACCGUUAAAAUAAAUCGAGGACCGGUACGGCCGCCACUCGUAUAGCGGUCAGUGAUGUUGACUGUAGUAC [KL-SSTryp-A form2 sub12 #dotplot2>1]	419 nM	428 nM	491 nM	475 nM	546 nM
UUUAUAUUCUGAGGAUAUCGUAUUAAUGAAGUGAUGUUUCAGUAUAUUCUAAUUAUAUAUAAUUUUCGAGAAGGCAGUAUUAUUU [JR_Nu3_SSFMNB_Sub028]	187 nM	243 nM	246 nM	320 nM	196 nM
ACAGUCGGCUGUGAUACCAGUCGUAUUACAACAUGUUGCAGUGAUGUUGCGAGAUAGGAUGACCCUUGGCAGCACUCAGUACGAC [Same State Theophylline B GF10]	208 nM	135 nM	222 nM	252 nM	209 nM
CGUUUAUAGCAGGAUACCAGUACCCAUUAUGUACGUUAAUAGUAGAGUGAUGUUCUAAAGUACCCUUGGCAGCUUCCCGUGACCC [ExTheophylB.Y]	119 nM	183 nM	140 nM	176 nM	94.7 nM
AGACUACCACACUGUCAAUAGACAGUGAACUAGGAUAUGCUGAUAAGCAGAAGGAGUGAUGUUCCUAAUAAGGUAGUCAUAUAAU [FmnAX 15 #SwitchBubble #StaticStem #K4Early]	590 nM	482 nM	558 nM	637 nM	503 nM
GAACGGCGGGCGGCCGCCACUGGUAUACGAGUGAUGUUCGGAUAUACAUAAAAUAAGGUAAUUAACAGGACCGGGUCAGAGCCGG [Tryptophan B Same State; Euphoria Solution]	138 nM	130 nM	165 nM	142 nM	118 nM
AGUGUGCAAAAGCACACUCAGUACAAGGACAAGGAUAUCUACUAAUAGAGAAGGUGUCCUUUCCUUAGUGAUGUUAAGGAGCUGA [Omei KL FMN A SS D v2]	177 nM	295 nM	339 nM	347 nM	368 nM
UUAGUCUAGAGAAGGAGCGCAGUGAUGUUGCGGUAUGUGAAAAUAUGUAUAUAAUAAUAAAUGCAGGUAGGUCGCUCUAGACAUU [AK2 Exc Arginine B]	68.4 nM	89.7 nM	64.9 nM	85.7 nM	54.3 nM
GCGGCGGGCCAAGGAUAUAUAUUGGAGUGAUGUUGUUCAUUUAUUUGAGCUAGUGAUGUUGGUCAGAUAGAAGGUGGCCCGCCGC [whbob_Ex_FMNB__2th216]	76.3 nM	30.1 nM	51.1 nM	46.2 nM	46.4 nM
CUCGUGGGUUUGAGAGGGCUUGUGGGAAGUGAGGAUAUUUAGGGAGGGAGAAGGUACUAUAGAAUAUAGUGAUGUUAUAUAUGGG [SSFMNA.U]	264 nM	138 nM	185 nM	111 nM	147 nM
AGAGUGAUGUUUUUUUGAAGUGAGUAAUGUCGAGGACCGGUACGGCCGCCACUCGAGUGAUGUUAGUGAUGUUGAUGUAGUGAUG [?lmullin]	138 nM	61.3 nM	72.4 nM	137 nM	127 nM
UAGUCCUAGUGAUCCUUAUCAAGUGGUGGGCGAGGACCGGUACGGCCGCCACUCGACUAUGCAGUGAUGUUGUAAUCCGGACAAU [Exclusion - Tryptophan A (Freestyle 12)]	669 nM	488 nM	633 nM	742 nM	541 nM
UGGACCUGACUCGAUAAGAGUCAAUGAGAUACCAGUGACGAAAGUCACCCUUGGCAGCUCCUGCCAGUGAUGUUGGUAAGGUCCU [#SwitchBubble 4 #StaticStem]	416 nM	252 nM	437 nM	575 nM	299 nM
GUGGUUUACGUAGGAUAUCGGUGAUGAGUAAAUGGAGUGAUGUUCCGAGAUUGAAUAUGAGAUGAGCGAGAAGGGCGGUUUAUGC [FMN B Same State; Euporia Solution 3]	60.8 nM	77.3 nM	63.1 nM	89.7 nM	54.7 nM
AAAUUUAAUAUAUUUAAUUAAUUAAGUGAUACCAGACAUUAAUAAGUCCCUUGGCAGCACAAUGCAGUGAUGUUGCUUAUAAUAA [JR_SSTheophyA_Sub009]	129 nM	120 nM	76.6 nM	169 nM	76.3 nM
CCGGAUUAUGCGGCCGCCACUGAGAAAUUGGAGGUACGCCCUCCCGAUAGUGAUGUUAUCCAUUACAGGACCGGGCAUCUCCUCU [theeternabot_sameState_KL_Trp_B_23]	779 nM	421 nM	893 nM	500 nM	325 nM
GUGUGUGAAAACACGCACUUAUAUCCUAGGCAGGAUAUGCGGAAACGCAGAAGGGCCACCGGCGAGAAAAUCCAGUGAUGUUGGA [Ex FMN A 6]	281 nM	245 nM	273 nM	192 nM	251 nM
UGUCAUUGGUCUGAUACCAGUUGAUAAACUGGAGUGAUGUUCCUCGACGAAUACGUCGACAACCCUUGGCAGCAGACCGAUGACU [TheoBS 14 #SwitchBubble 13 #StaticStem]	683 nM	627 nM	713 nM	354 nM	607 nM

Sequence	apparent KD of K4 kissing-loop reporter (input ligand: FMN 200 uM)	apparent KD of K4 kissing-loop reporter (input ligand: arginine 13.2 mM)	apparent KD of K4 kissing-loop reporter (input ligand: none)	apparent KD of K4 kissing-loop reporter [1]	apparent KD of K4 kissing-loop reporter [2]
GGAGGAGAAUAUGAUACCAGCAGAGAGAGAGAGGAAGUAUAGUGAUGUUAUAUGUGAGAAUGCCCUUGGCAGCAUAACAAGAAGG [whbob_SS_Theo_B_sa88]	121 nM	225 nM	194 nM	116 nM	122 nM
UGAUACCAGACGGCCGCCACUCCCGCAGGUCAAAGACCUGCGAAGAAGGUUCUUCAGUGAUGUUGGAGGACCGGGUCUGGUAUCU [FiskerMod 22 - Jieux - Exclusion - Tryptophan B]	217 nM	168 nM	207 nM	213 nM	369 nM
ACGCGCGUGCGCUGGAAAGCGCACGCGCGUCGAGGACCGGUACGGCCGCCACUCGCUCGCGCCGAGUGAUGUUCGGCCGGCGAAC [#2 SameState - Tryptophan_A Attempt #2 (HarryS)]	342 nM	288 nM	303 nM	292 nM	645 nM
UGAUAGGACAGAAGGAGCGGUAGUGAUGUUACCAAAAGUAUAAGGUGUCAAAAGACACCCUGCCAGGUAGGUCGCUGUCCUAUCU	157 nM	210 nM	178 nM	198 nM	152 nM
GUUACGCAUGGAAGGAGCGCACUCCGAUUGGGCGACACAGUGAUGUUGUGGUUCGUUCGAAUGCAGGUAGGUCGCCAUGUGUAAC [Ex Arginine B K4 20]	181 nM	153 nM	140 nM	153 nM	142 nM
UUGCGGAGUGAUGUUUCGGGAUAUCGGGAAGGAGCGCCGAUAACGGCAGGUAGGUCGCCCGGUCCAGUGAUGUUGGGCAUGCAUU [Exclusion Arg A GF 23]	200 nM	136 nM	212 nM	201 nM	171 nM
GCUAUGGUAGGAAGGAGCGCUUAUUUAUUUUUAAGAGUGAUGUUCGAUAGUAGAUAUUUAAAGCAGGUAGGUCGCCUACUAUAGC [Arginine B K4 13]	122 nM	159 nM	108 nM	136 nM	71.5 nM
AGAGUACGAAAGUACUCCUCUACACACUGCCGAGGACCGGUACGGCCGCCACUCGAGUUGAGUGAUGUUCGACAGUGUGUAGAGA [Omei KL Tryp A SS C v2]	114 nM	56.2 nM	79 nM	132 nM	128 nM
GGGAGUAGUGCGGCCGCCACUGUGAGGGAAGAAGAAUAUAGUGAUGUUAUAUAGGAAGGGAAGAAUAGGACCGGGCAUUAGAUUU [SSTRyptB.aB]	225 nM	208 nM	245 nM	230 nM	198 nM
UCUCAGGAGUGAUGUUCCGUAGGUGGAAGGAAGGAUAUCUAAUGGCAGAGAAGGUCCAUCCUUGCUCGUAUCAGUGCCGGGAAGC [theeternabot_exclusion_KL_FMN_A_13]	282 nM	251 nM	232 nM	304 nM	168 nM
UGUAUGUGAUUUGAUACCAGACCAGCUGGUGGAUCACGAGUGAUGUUCGUGUUGGUUUGGGUCCCUUGGCAGCAAAUCGCAUACU [KL-SSTheoB13]	218 nM	151 nM	180 nM	131 nM	166 nM
UGAUAGGACAGAAGGAGCGGGAGUGAUGUUCCCAAAGGAAGGUCUAGCAAAGCUGGACCCUCCCAGGUAGGUCGCUGUCCUAUCU [ArgBX 4 #SwitchBubble #StaticStem]	129 nM	123 nM	124 nM	155 nM	118 nM
CGCGCGGGUUGAGAGGUUCGCGCGAAUGAUACCAGUAUAUAAGAAUACCCUUGGCAGCAUAAGAAAGAUAUAGUGAUGUUGUAUA [SSTheophA.G]	408 nM	211 nM	262 nM	355 nM	262 nM
CGCAGUGAUGUUGCGAGUAGCUACAGGGAAGGAGCGUGCUAGAGCACAGGUAGGUCGCCCACUGGGUCAGUGAUGUUGGUCGGGU [Same State Arginine A GF 29]	201 nM	166 nM	180 nM	171 nM	171 nM
GCCAGUGAUGUUGGCAUUUCGAGCCAUGAAGGAGCGCACGGAAGUGCAGGUAGGUCGCAUGGUACUUAGGAUAUUAUCCUAAGUA [Antearxe]	180 nM	169 nM	224 nM	178 nM	144 nM
CUAAGGGAAGCAGGAUAUCGGUAUUAGUGUGUUAAAUAAACACUCGGGUAGUGAUGUUGCCCGUGGCGAGAAGGGCUACCAUUGG [Laace]	33.6 nM	44.8 nM	48.7 nM	41.4 nM	47.3 nM
AGUCCACUCUAAAGAGUGGACCUAAGGGAUACCAGUGAUGUUGGUCACCCUUGGCAGCCCACUGUCAUCGAUAAAGAUGGCAGCA	119 nM	106 nM	113 nM	117 nM	117 nM
AGAUAGGGCUGAAGGAGCGUCGGAGAAGAGAAGAAGGAAUCCAGUGAUGUUGGAUAGAUCCGACAGGUAGGUCGCAGUUUUAUGA [hbob_SS_Arginine_B_2t139]	125 nM	127 nM	133 nM	178 nM	124 nM
UAUGAAGGUGGAGGAUAUUGAUUGAACCUUGGUCAGGAGUGAUGUUCCGGGAAGCCUUGGGUUCAUCGAGAAGGCCAAGGAUAGU [Extra 2]	139 nM	257 nM	254 nM	280 nM	238 nM
GAUGGGUAUCAAGGAUAUGCCACUAUUGACUCCUAGAUGGUCAACCAUAUAAUGCGAGUGAUGUUCGCAGAAGGUGAUUCUUAGC [theeternabot_exclusion_KL_FMN_B_24]	92.3 nM	92.3 nM	89.5 nM	89.7 nM	73.2 nM
UGACUGGAUGGAAGGAGCGCUAAACUCCUAGUGAUGUUAGGGACAUGAGGCAAAGCCUUGAAGCAGGUAGGUCGCCAUCUAGUCU [FiskerMod 27 - Jieux - Same State - Arginine B]	233 nM	133 nM	208 nM	176 nM	167 nM
